Assay results: US8367060B2, “Pharmaceutical composition containing arazyme for the prevention of liver dysfunction” (Insect Biotech Co., Ltd., priority 2006, dated 2013)
“Also recorded” adds a separate entry of the source.

Legend:
[1] = system: P-smad3; assay: Immunohistochemical observation of P-smad3 expression in liver cells; assay type: in vivo, mice; details: for P-smad3 immune response (immunohistochemistry): 100 mg/kg oral before CCl4, 100 mg/kg
[2] = system: SMP30; assay: Immunohistochemical observation of SMP30 in liver cells; assay type: in vivo; details: wild type mice, 100 mg/kg oral before CCl4, compared with CCl4 alone
Protocol: (§1) Wild type mice and SMP30 knock-out mice were divided, by 5 of each, into negative control groups (G1, G5), positive control groups (G2, G6), two of experimental group 1 (G3, G7) and two of experimental group 2 (G4, G8) (Table 1). Intraperitoneal administration of olive oil was performed once to negative control mice (G1, G5), while intraperitoneal administration of CCl4 (0.4 ml/kg) was performed once to positive control mice (G2, G6). In the meantime, 100 mg/kg of vitamin C dissolved in tap water was orally administered to experimental group 1 mice (G3, G7) one day before the intraperitoneal administration of CCl4 (0.4 ml/kg). 100 mg/kg of arazyme dissolved in tap water was orally administered to experimental group 2 mice (G4, G8) one day before the intraperitoneal administration of CCl4 (0.4 ml/kg). 24 hours after the administration of CCl4, autopsy was performed in every mouse and samples were taken from each mouse for histopathological test.
To observe SMP30 in liver cells immunohistochemically, paraffin embedded tissues fixed with formalin were cut into 4 μm thick sections, followed by deparaffinization. To inhibit the activity of endogenous peroxidase, the sections were treated in 3% H2O2 for 30 minutes and washed with 0.01 M PBS. To increase antigen expression of the tissues, the sections were treated with 0.01 M citrate buffer, followed by heat treatment using microwave. […]

[3] = system: SMP30; assay: Expression of SMP30 in liver cells by immunoblotting; assay type: in vivo; details: wild type mice; 100 mg/kg oral before CCl4; compared with CCl4 only (G2)
Protocol: as §1
(§2) The expression of SMP30 in liver cells was investigated by immunoblotting. First, the liver tissues frozen at −70° C. were homogenized in RIPA buffer containing 0.1 mM sodium orthovandate (Na3VO4) and protease inhibitor cocktail tablet (Roche, Mannheim, Germany). […] Protein concentration was measured by Bradford method and each protein sample proceeded onto 10% SDS-polyacrylamide gel at the concentration of 80 µg/well, followed by electrophoresis. […]

[4] = system: rats; assay: Acute toxicity test of arazyme, single oral administration; assay type: in vivo, Wistar rats; details: female rats, oral 1250, 2500 and 5000 mg/kg once
Protocol: The following experiments were performed to see if arazyme has acute toxicity in rats.
9-week old SPF (specific pathogen-free) Wistar line rats (Orient, Co., Seoul, Korea) were raised in an animal facility (4 groups, 4 rats per group) where temperature was regulated to 22±3° C., humidity was adjusted to 55±10% and light was also regulated to 12L/12D. The rats were quarantined and adapted for one week before being used. During the whole experiment period, the rats were raised in polycarbonate cages [240 W×390 L×175 H (mm)] by up to 5 per cage. Skin mark using an oil magic pen and individual identification card were used for distinguishment. Feed for laboratory animals (PMI Nutrition International, USA) was provided at any time after being sterilized. Tap water was provided using a water bottle at any time after being purified by a carbon filter.
Arazyme of the invention was dissolved in distilled water for injection at the concentrations of 0, 1250, 2500 and 5000 mg/kg, and 10 ml/kg of each arazyme solution was orally administered once to rats using zonde. After one week-adaptation, the rats were divided into four groups. Different concentrations of arazyme were administered to rats at 10 weeks, and general symptoms were checked. To evaluate toxicity of arazyme to organs, autopsy was performed 24 hours after the administration.
After oral-administration of arazyme to female rats, any symptom according to the administration was investigated and behavior, appearance and biological functions of rats were also observed to evaluate toxicity.

[5] = system: liver cells; assay: Histopathological observation on liver cells (H&E) in CCl4-induced acute liver injury; assay type: in vivo, mice; details: for necrosis in liver cells: 100 mg/kg oral one day before CCl4 0.4 ml/kg i.p., autopsy 24 hours after CCl4
From the text: In the present invention, male wild type C57BL/6(WT) at 12 weeks and SMP30 knock-out C57BL/6(KO) mice were used to induce liver injury by CCl4 and then the relation of SMP30 with arazyme was investigated. 10 male and 20 female SMP30 knock-out C57BL/6 mice were distributed from Tokyo Metropolitan Institute of Gerontology, which were then raised in the animal laboratory at Department of Pathology, College of Veterinary Medicine, Kyungpook National University, Korea. Among F1 mice generated by breeding, knock-out mice were selected by tail DNA genotyping by PCR.
Wild type mice were quarantined and adapted for 7 days in the animal laboratory. During the adaptation, every symptom was checked and only healthy animals were selected. Both wild type and SMP30 knock-out mice were 12 weeks old, excluding the difference in age.
Rats were adapted and raised in an animal facility where temperature was regulated to 22±3° C., humidity was adjusted to 55±10% and light was also regulated to 12L/12D (08:00 lights on, 20:00 lights out). The environmental conditions were checked regularly (every three months). After environmental evaluation, no changes in important conditions were recognized. During the whole experiment period, rats were raised in polycarbonate cages [240 W×390 L×175 H (mm)] by up to 5 per cage. Skin mark using an oil magic pen and individual identification card were used for distinguishment. Feed for laboratory animals (PMI Nutrition International, 505 North 4th Street Richmond, in 47374, USA) was provided at any time after being sterilized by irradiation (13.2 kGy). Tap water was provided using a water bottle at any time after being purified by a carbon filter. Carbon tetrachloride was diluted in olive oil at the concentration of 0.4 ml/kg and administered to […] once to induce liver injury. 24 hours after the administration, autopsy was performed.
as §1, with “24 hours after the administration of CCl4, autopsy was performed in every mouse and samples were taken from each mouse for histopathological test.” left out

[6] = system: P-smad3; assay: Expression of P-smad3 in liver cells by immunoblotting; assay type: in vivo; details: SMP30 knock-out mice; compared with CCl4 alone (G6)
Protocol: as §1, §2

[7] = autopsy 24 hours after administration

B1: arazyme: novel protease produced by Aranicola proteolyticus HY-3 (KCTC 0268BP); 51.5 kDa monomer; polypeptide sequence SEQ ID NO: 1 (protein, listed as Aranicola proteolyticus)
chain: MQSTKKAIEITESSLAAASSAYNAVDDLLHYHERGNGIQVNGKDSFSTEQAGLFITRENQTWNGYKVFGQPVKLTFSFPDYKFSSTNVAGDTGLSKFSAEQQQQAKLSLQSWSDVANITFTEVGAGQKANITFGNYSQDRPGHYDYDTQAYAFLPNTIYQGQNLGGQTWYNVNQSNVKHPASEDYGRQTFTHEIGHALGLSHPGDYNAGEGNPTYRDASYAEDTREFSLMSYWSETNTGGDNGGHYAAAPLLDDISAIQHLYGANQTTRTGDTVYGFNSNTGRDFLSTTSNPQKVIFAAWDAGGNDTFDFSGYTANQRINLNEKSFSDVGGLKGNVSIAAGVTIENAIGGSGNDVIVGNAANNVLKGGAGNDVLFGGGGADELWGGAGKDTFVFSAVSDSAPGASDWIKDFQKGIDKIDLSFFNQGAQGGDQIHFVDHFSGAAGEALLSYNASNNVSDLALNIGGHQAPDILVKIVGQVDVATDFIV
modifications: BINDING (192)..(192) Zn binding site
In the case of B1, the “P-smad3 expression, arazyme groups compared with vitamin C groups” value ([1]; G4, G8 versus G3, G7, wild type and SMP30 knock-out mice) is reported as “lower”, the “P-smad3 immune response (immunohistochemistry)” value ([1]; SMP30 knock-out mice, G6, G7 compared with G8) is reported as “strongly detected in the groups treated with CCl4 alone or together with vitamin C (G6, G7), compared with the group (G8) treated with arazyme” and the “P-smad3 immune response (immunohistochemistry)” value ([1]; wild type mice, compared with CCl4 only (G2)) is reported as “strong immune response against P-smad3 was detected in group 2 (G2) treated with CCl4 only, compared with the groups (G3, G4) treated with vitamin C and arazyme; also recorded: strongly observed in CCl4 treated group (G2), compared with the groups treated with vitamin C and arazyme (G3, G4)”. The “SMP30 expression (immunohistochemistry)” value [2] was “higher; also recorded: more strongly expressed”, the “SMP30 expression (immunoblotting)” value [3] was “high” and the “appearance (hair coat, periocular region, ears, genitalia, limbs, tail)” value [4] was “no changes”. For the same molecule, the “biological functions (respiration, salivation, feces, emesis)” value [4] was “no abnormal symptoms were found”, the “symptoms in relation to motion, walking, temper and convulsions” value [4] was “no specific symptoms” and the “autopsy with naked eyes, organs” value [4, 7] was “did not cause any abnormal symptom or disorder in every organ”. The “microscopic observation of organs (liver, heart, lung, spleen)” value [4, 7] was “No pathological changes were observed”, the “autopsy with naked eyes, organs” value ([4]; autopsy 24 hours after administration, listed as Arazyme) was “no abnormal symptoms were observed” and the “necrosis in liver cells” value ([5]; SMP30 knock-out C57BL/6 mice) was “significantly inhibited”. The “injury in liver cells around central vein region” value ([5]; arazyme treated group, CCl4 liver injury) was “only weak injury”, the “necrosis in liver cells” value ([5]; wild type C57BL/6 mice) was “significantly inhibited” and the “apoptosis of liver cells, histological observation” value ([5]; wild type and SMP30 knock-out mice with acute liver injury) was “inhibition of apoptosis of liver cells was observed”. For the same molecule, the “P-smad3 expression (immunoblotting)” value [6] was “inhibited”.
